Measurements: patent US20220332848A1 (published 2022)

B1: bispecific antibody CTLA4-E-HN (bispecific antibody)
heavy: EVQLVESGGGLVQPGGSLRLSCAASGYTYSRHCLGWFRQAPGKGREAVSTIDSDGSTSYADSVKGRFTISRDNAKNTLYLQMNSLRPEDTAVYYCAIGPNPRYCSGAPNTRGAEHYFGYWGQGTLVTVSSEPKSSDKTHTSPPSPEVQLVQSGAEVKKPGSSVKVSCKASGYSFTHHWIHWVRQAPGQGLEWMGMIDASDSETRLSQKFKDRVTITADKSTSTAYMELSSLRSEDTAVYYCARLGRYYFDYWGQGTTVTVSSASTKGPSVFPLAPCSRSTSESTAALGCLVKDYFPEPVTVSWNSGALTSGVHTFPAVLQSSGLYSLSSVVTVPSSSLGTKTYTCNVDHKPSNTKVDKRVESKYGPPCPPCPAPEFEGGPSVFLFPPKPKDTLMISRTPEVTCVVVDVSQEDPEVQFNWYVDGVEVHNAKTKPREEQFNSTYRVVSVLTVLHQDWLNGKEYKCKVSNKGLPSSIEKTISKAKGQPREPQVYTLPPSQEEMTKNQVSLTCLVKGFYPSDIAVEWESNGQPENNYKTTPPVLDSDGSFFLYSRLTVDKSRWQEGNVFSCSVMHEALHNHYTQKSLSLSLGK
light: EIVLTQSPATLSLSPGERATLSCRASENVGTYISWYQQKPGQAPRLLIYGASNRYTGIPARFSGSGSGTDFTLTISSLEPEDFAVYYCGESYGHLYTFGGGTKVEIKRTVAAPSVFIFPPSDEQLKSGTASVVCLLNNFYPREAKVQWKVDNALQSGNSQESVTEQDSKDSTYSLSSTLTLSKADYEKHKVYACEVTHQGLSSPVTKSFNRGEC
B2: bispecific antibody CTLA4-G15-HN (bispecific antibody)
heavy: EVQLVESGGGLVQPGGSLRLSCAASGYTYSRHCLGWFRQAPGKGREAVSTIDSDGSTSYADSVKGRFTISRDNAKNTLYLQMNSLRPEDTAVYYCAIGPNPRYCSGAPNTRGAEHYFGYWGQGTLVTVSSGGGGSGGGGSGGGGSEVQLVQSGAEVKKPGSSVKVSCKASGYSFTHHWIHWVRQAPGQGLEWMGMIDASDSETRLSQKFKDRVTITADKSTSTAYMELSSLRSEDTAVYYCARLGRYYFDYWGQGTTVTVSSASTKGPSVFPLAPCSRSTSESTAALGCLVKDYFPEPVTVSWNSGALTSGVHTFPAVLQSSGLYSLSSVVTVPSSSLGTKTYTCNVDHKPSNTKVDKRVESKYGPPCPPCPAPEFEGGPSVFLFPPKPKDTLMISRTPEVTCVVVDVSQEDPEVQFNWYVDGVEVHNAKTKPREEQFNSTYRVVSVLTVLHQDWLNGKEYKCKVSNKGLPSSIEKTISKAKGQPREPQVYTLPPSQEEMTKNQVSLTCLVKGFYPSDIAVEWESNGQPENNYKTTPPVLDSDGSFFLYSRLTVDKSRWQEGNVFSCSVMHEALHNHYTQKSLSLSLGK
light: B1 light
B3: bispecific antibody CTLA4-E-HC (bispecific antibody)
heavy: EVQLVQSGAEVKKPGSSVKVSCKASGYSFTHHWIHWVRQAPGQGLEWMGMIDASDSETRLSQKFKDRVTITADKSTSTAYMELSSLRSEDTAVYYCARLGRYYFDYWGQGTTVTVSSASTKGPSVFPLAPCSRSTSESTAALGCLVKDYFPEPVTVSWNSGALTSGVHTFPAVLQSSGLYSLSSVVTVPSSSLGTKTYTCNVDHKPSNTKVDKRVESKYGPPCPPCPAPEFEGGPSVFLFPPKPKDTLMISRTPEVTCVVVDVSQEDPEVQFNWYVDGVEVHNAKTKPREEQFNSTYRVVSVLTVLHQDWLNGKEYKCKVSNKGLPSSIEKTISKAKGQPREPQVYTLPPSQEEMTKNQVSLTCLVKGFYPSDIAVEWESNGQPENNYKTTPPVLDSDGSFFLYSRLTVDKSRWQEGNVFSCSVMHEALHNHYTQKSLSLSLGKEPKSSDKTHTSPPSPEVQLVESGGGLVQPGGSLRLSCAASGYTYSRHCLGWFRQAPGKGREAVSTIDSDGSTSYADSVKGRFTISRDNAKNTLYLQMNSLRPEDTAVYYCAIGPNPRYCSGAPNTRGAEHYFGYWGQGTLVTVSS
light: B1 light
B4: bispecific antibody CTLA4-G15-HC (bispecific antibody)
heavy: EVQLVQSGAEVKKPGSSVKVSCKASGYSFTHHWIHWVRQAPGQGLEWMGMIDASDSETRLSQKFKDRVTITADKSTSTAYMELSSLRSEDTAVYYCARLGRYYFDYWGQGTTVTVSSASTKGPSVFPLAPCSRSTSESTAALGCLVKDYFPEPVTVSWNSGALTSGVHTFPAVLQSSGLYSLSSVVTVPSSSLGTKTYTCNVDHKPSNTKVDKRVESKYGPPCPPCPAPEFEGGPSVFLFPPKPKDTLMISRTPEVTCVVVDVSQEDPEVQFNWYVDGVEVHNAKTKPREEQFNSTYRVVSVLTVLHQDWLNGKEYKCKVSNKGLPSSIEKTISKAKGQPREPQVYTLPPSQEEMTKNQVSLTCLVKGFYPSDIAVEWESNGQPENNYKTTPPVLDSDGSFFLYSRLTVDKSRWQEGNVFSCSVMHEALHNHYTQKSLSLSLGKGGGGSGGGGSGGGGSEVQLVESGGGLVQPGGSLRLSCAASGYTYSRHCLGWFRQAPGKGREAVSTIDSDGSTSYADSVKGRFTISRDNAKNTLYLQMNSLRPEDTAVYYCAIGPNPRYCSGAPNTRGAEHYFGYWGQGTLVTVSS
light: B1 light
B5: anti-CD47 monoclonal antibody (mAb) (antibody, V domains shown)
VH: EVQLVQSGAEVKKPGSSVKVSCKASGYSFTHHWIHWVRQAPGQGLEWMGMIDASDSETRLSQKFKDRVTITADKSTSTAYMELSSLRSEDTAVYYCARLGRYYFDYWGQGTTVTVSS
VL: EIVLTQSPATLSLSPGERATLSCRASENVGTYISWYQQKPGQAPRLLIYGASNRYTGIPARFSGSGSGTDFTLTISSLEPEDFAVYYCGESYGHLYTFGGGTKVEIKR
B6: bispecific antibody CTLA4-G9-LN (bispecific antibody)
light: EVQLVESGGGLVQPGGSLRLSCAASGYTYSRHCLGWFRQAPGKGREAVSTIDSDGSTSYADSVKGRFTISRDNAKNTLYLQMNSLRPEDTAVYYCAIGPNPRYCSGAPNTRGAEHYFGYWGQGTLVTVSSGGGGSGGGSEIVLTQSPATLSLSPGERATLSCRASENVGTYISWYQQKPGQAPRLLIYGASNRYTGIPARFSGSGSGTDFTLTISSLEPEDFAVYYCGESYGHLYTFGGGTKVEIKRTVAAPSVFIFPPSDEQLKSGTASVVCLLNNFYPREAKVQWKVDNALQSGNSQESVTEQDSKDSTYSLSSTLTLSKADYEKHKVYACEVTHQGLSSPVTKSFNRGEC
heavy: not shown

Legend:
[1] = target: human CTLA-4 (human, UniProt P16410 36-223); experiment: FACS binding CHO-K1 cells expressing human CTLA-4
[2] = target: CD47 (UniProt Q08722 19-323); experiment: FACS
CD47, sequence (Q08722 19-323): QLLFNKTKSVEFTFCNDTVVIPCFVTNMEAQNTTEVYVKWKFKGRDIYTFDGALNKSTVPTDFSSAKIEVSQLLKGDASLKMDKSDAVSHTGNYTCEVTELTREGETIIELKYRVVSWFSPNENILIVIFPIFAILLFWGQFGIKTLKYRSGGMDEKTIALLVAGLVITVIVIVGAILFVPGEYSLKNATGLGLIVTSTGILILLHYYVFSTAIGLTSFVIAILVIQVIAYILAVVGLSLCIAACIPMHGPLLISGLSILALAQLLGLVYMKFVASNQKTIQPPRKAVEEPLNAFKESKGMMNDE

human CTLA-4, sequence (P16410 36-223): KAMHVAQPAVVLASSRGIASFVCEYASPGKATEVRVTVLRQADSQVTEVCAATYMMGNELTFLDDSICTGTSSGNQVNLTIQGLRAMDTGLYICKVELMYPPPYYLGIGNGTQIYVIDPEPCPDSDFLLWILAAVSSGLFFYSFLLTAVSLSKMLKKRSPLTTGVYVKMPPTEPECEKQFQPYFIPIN

EC50 [1] | EC50 [2] | Binder
3.61 nM | 2.3 nM | B1
2.93 nM | 1.81 nM | B2
7.05 nM | 1.57 nM | B3
6.22 nM | 1.63 nM | B4
~3.2 nM | 0.905 nM | B5
3.59 nM |  | B6
